*: point of attachment. FITC = O=C1OC2(c3ccc(O)cc3Oc3cc(O)ccc32)c2ccc(NC(=S)*)cc21; Ahx = NCCCCCC(=O)O

Here are results for nine molecules from publication PMC5606850, “Acidic C-terminal domains autoregulate the RNA chaperone Hfq” (eLife, 2017).

Series [1] has as its target T1, Hfq102 (wild-type Hfq) (Escherichia coli, UniProt P0A6X3 1-102). Briefly: competition; vs pUC19 EMSA; strong; Anisotropy: 10 mM Tris-HCl pH 7.5, 50 mM NaCl, 50 mM KCl, 30 C; CTD-FITC competition: 50 mM Tris-HCl pH 7.5, 30 C; pUC19 EMSA: 40 mM Tris-HCl pH 7.5, 0.14 mM EDTA, 35 mM NH4Cl, 3.7% glycerol, 25 C (competition legend 30 C). To be noted: protein: recombinant; tags: untagged; chain copies: 6. Background: In EMSA bound probe runs differently from free probe, usually more slowly.

The subject of series [2] is RNA molecular beacon and Target RNA. The conditions noted are these: ref Zheng et al., 2016; cited from earlier work.
Series [3] has as its target T1, Hfq102 (wild-type Hfq). Briefly: EMSA; 33.3 nM hexamer, 10 C; less ternary complex than Hfq65; Anisotropy: 10 mM Tris-HCl pH 7.5, 50 mM NaCl, 50 mM KCl, 30 C; CTD-FITC competition: 50 mM Tris-HCl pH 7.5, 30 C; pUC19 EMSA: 40 mM Tris-HCl pH 7.5, 0.14 mM EDTA, 35 mM NH4Cl, 3.7% glycerol, 25 C (competition legend 30 C). The conditions noted are these: protein: recombinant; tags: untagged; chain copies: 6; label: 32P on ChiX; partial RNA-RNA duplex.

Series [4] concerns the target T2, Hfq65 (Hfq core, CTD deleted) (Escherichia coli, UniProt P0A6X3 1-65). The experiment in a line: EMSA; 33.3 nM hexamer, 10 C; most stable ternary complex; Anisotropy: 10 mM Tris-HCl pH 7.5, 50 mM NaCl, 50 mM KCl, 30 C; CTD-FITC competition: 50 mM Tris-HCl pH 7.5, 30 C; pUC19 EMSA: 40 mM Tris-HCl pH 7.5, 0.14 mM EDTA, 35 mM NH4Cl, 3.7% glycerol, 25 C (competition legend 30 C). To be noted: protein: recombinant; tags: untagged; chain copies: 6; label: 32P on ChiX; partial RNA-RNA duplex.

In series [5] the target is T2, Hfq65 (Hfq core, CTD deleted). The experiment in a line: competition; displaces CTD-FITC peptide; stronger than length trend; Anisotropy: 10 mM Tris-HCl pH 7.5, 50 mM NaCl, 50 mM KCl, 30 C; CTD-FITC competition: 50 mM Tris-HCl pH 7.5, 30 C; pUC19 EMSA: 40 mM Tris-HCl pH 7.5, 0.14 mM EDTA, 35 mM NH4Cl, 3.7% glycerol, 25 C (competition legend 30 C). To be noted: protein: recombinant; tags: untagged; chain copies: 6; minRCRB-like hairpin at 5' end.

Series [6] shares this target. The experiment in a line: fluorescence anisotropy; Hill 0.6; asterisked value, footnote not in material (possibly earlier work); Anisotropy: 10 mM Tris-HCl pH 7.5, 50 mM NaCl, 50 mM KCl, 30 C; CTD-FITC competition: 50 mM Tris-HCl pH 7.5, 30 C; pUC19 EMSA: 40 mM Tris-HCl pH 7.5, 0.14 mM EDTA, 35 mM NH4Cl, 3.7% glycerol, 25 C (competition legend 30 C). The conditions noted are these: protein: recombinant; tags: untagged; chain copies: 6; label: 5' FAM. For orientation: Fluorescence polarisation rises when a labelled molecule tumbles more slowly, as on binding a larger partner.

For series [7], the target named is T1, Hfq102 (wild-type Hfq). Briefly: fluorescence anisotropy; Hill 0.7; asterisked value, footnote not in material (possibly earlier work); Anisotropy: 10 mM Tris-HCl pH 7.5, 50 mM NaCl, 50 mM KCl, 30 C; CTD-FITC competition: 50 mM Tris-HCl pH 7.5, 30 C; pUC19 EMSA: 40 mM Tris-HCl pH 7.5, 0.14 mM EDTA, 35 mM NH4Cl, 3.7% glycerol, 25 C (competition legend 30 C). The conditions noted are these: protein: recombinant; tags: untagged; chain copies: 6; label: 5' FAM.

Series [8] has as its target T1, Hfq102 (wild-type Hfq). Briefly: competition; vs pUC19 EMSA; good; Anisotropy: 10 mM Tris-HCl pH 7.5, 50 mM NaCl, 50 mM KCl, 30 C; CTD-FITC competition: 50 mM Tris-HCl pH 7.5, 30 C; pUC19 EMSA: 40 mM Tris-HCl pH 7.5, 0.14 mM EDTA, 35 mM NH4Cl, 3.7% glycerol, 25 C (competition legend 30 C). To be noted: protein: recombinant; tags: untagged; chain copies: 6.
Series [9] addresses T3, E. coli Hfq65-R16A (E. coli, UniProt P0A6X3 1-65, R16A).
T3 construct: Hfq, E. coli, core residues 1-65, rim mutation R16A; Untagged; made by site-directed mutagenesis of pET21b-Hfq
The experiment in a line: fluorescence polarisation; 45 nM FITC-labelled peptide titrated with Hfq65 or variant (0–100 µM Hfq monomer), 50 mM Tris·HCl pH 7.5 (low salt), 30 °C, duplicate, single-site isotherm; Kd in Hfq monomer. The conditions noted are these: both partners purified.

The target in series [10] is T4, E. coli Hfq65-K47A (E. coli, UniProt P0A6X3 1-65, K47A).
T4 construct: Hfq, E. coli, core residues 1-65, rim mutation K47A; Untagged; made by site-directed mutagenesis of pET21b-Hfq
Described as above. To be noted: both partners purified.

Series [11] has as its target T5, E. coli Hfq65-R19D (E. coli, UniProt P0A6X3 1-65, R19D).
T5 construct: Hfq, E. coli, core residues 1-65, rim mutation R19D; Untagged; made by site-directed mutagenesis of pET21b-Hfq
The description is as above. To be noted: both partners purified.

In series [12] the target is T6, E. coli Hfq65-Q35A (E. coli, UniProt P0A6X3 1-65, Q35A).
T6 construct: Hfq, E. coli, core residues 1-65, mutation Q35A; Untagged; made by site-directed mutagenesis of pET21b-Hfq
The series is described as above. The conditions noted are these: both partners purified.

The target in series [13] is T1, Hfq102 (wild-type Hfq). The experiment in a line: fluorescence anisotropy; Hill 1.4; asterisked value, footnote not in material (possibly earlier work); Anisotropy: 10 mM Tris-HCl pH 7.5, 50 mM NaCl, 50 mM KCl, 30 C; CTD-FITC competition: 50 mM Tris-HCl pH 7.5, 30 C; pUC19 EMSA: 40 mM Tris-HCl pH 7.5, 0.14 mM EDTA, 35 mM NH4Cl, 3.7% glycerol, 25 C (competition legend 30 C). The conditions noted are these: protein: recombinant; tags: untagged; chain copies: 6; label: Cy3; hairpin with 5' overhang.

In series [14] the target is T1, Hfq102 (wild-type Hfq). The experiment in a line: fluorescence anisotropy; Hill 1.2; Anisotropy: 10 mM Tris-HCl pH 7.5, 50 mM NaCl, 50 mM KCl, 30 C; CTD-FITC competition: 50 mM Tris-HCl pH 7.5, 30 C; pUC19 EMSA: 40 mM Tris-HCl pH 7.5, 0.14 mM EDTA, 35 mM NH4Cl, 3.7% glycerol, 25 C (competition legend 30 C). The conditions noted are these: protein: recombinant; tags: untagged; chain copies: 6; label: 5' FAM on strand 1; blunt.

Consider GUGGUCAGUCGAGUGGAAAAAAAAAAAAAAAAAA (ssRNA) [Target-A18], for which the binding result in series [1] is given as “binds”.

B1: Bacillus subtilis Hfq: Hfq of Bacillus subtilis (protein, UniProt O31796 1-73, looked up)
RNA-binding protein Hfq: MKPINIQDQFLNQIRKENTYVTVFLLNGFQLRGQVKGFDNFTVLLESEGKQQLIYKHAISTFAPQKNVQLELE
Take B1: the “in vitro RNA annealing activity” value in series [2] was “inactive”.

B2: ChiX·chiP sRNA-mRNA pair (mixed)
RNA 1: GGGACACCGUCGCUUAAAGUGACGGCAUAAUAAUAAAAAAAUGAAAUUCCUCUUUGACGGGCCAAUAGCGAUAUUGGCCAUUUUUUU
RNA 2: GUAGUCAGCGAGACUUUUCUCAACGCUACUUUUUUAAUUUUUAUUUUUUCGCUGUUCACCUUUGGUGCAGCAAUUUAUACGUCAAAGAGGAUUAACCCAUGCGUACGUUUAGUGGC
Consider B2, for which the binding result in series [3] and in series [4] was “binds” in each case.

In the case of TATCCGTATGACGTTCCGGACTATGCGGCTAAGGGGCAATCTTTAC (structured_DNA) [DNA1], the binding result in [5] is on record as “binds”.

With CGAAUUUUUUAAGUGC (ssRNA) [D16-FAM], the figures for the Kd in series [6] and in [7] were 20 ± 1.3 nM hexamer and 15.5 ± 0.9 nM hexamer, respectively.

With GUGGUCAGUCGAGUGGUUUUUU (ssRNA) [Target-U6], the binding result in [8] was “binds”.

B3: CTD-FITC (fluorescently-labeled E. coli Hfq CTD peptide) (peptide)
peptide: {FITC-Ahx}-NNAGGGTSSNYHHGSSAQNTSAQQDSEETE-OH
notes: Hfq, E. coli, C-terminal domain peptide; lacks residues 65-72 of the CTD region; also called CTD-FITC peptide
As for B3, the binding result in series [9], in series [10], in series [11] and in series [12] was “binds” in each case.

CUUCCGUCCAUUUCGGACG (structured_RNA, 5' Thiol-C6) [minRCRB-Cy3]: the Kd in series [13] is 13.9 ± 1.5 nM hexamer.

B4: D16-FAM·R16 (dsRNA)
RNA 1: CGAAUUUUUUAAGUGC
RNA 2: GCACUUAAAAAAUUCG
Regarding B4, the Kd in [14] turned out to be 117 ± 12 nM hexamer.
